The supplement of paper PMC9170038

Test system: MS2 coat protein
Test: apparent KD of MS2 coat protein; designed switch direction (-1 OFF switch, 1 ON switch): -1; higher = weaker reporter binding
Procedure, shortened: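 On Illumina chips, designed RNA switches with common flanks were made by stalled E. coli RNA polymerase. Titrations with SNAP-549-labelled MS2 coat protein, doubling from 0.7 or 1.5 nM to 3 µM, were done with no input, with 200 uM small-molecule ligand, or with an oligonucleotide input. Apparent KD is the median per design over clusters, from curve fits of normalised cluster fluorescence.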

[1] = input ligand: microRNA oligo, concentration not stated
[2] = Eterna round: R95, input ligand: FMN 200 uM
[3] = Eterna round: R95, input ligand: microRNA oligo, concentration not stated
[4] = Eterna round: R95, input ligand: none

Sequence	apparent KD of MS2 coat protein (input ligand: FMN 200 uM) [µM]	apparent KD of MS2 coat protein [1] [µM]	apparent KD of MS2 coat protein (input ligand: none) [µM]	apparent KD of MS2 coat protein [2] [µM]	apparent KD of MS2 coat protein [3] [µM]	apparent KD of MS2 coat protein [4] [µM]
UUUUUAUAUGAAGGAUAUACUUAACAUGAGGAUCACCCAUGUGGUGUUGUGAGUGAGUGAGUUUAGUAGAAGGUCAAUUAGUAU [JMF's solution 101] (Eterna round: R96, puzzle: Exclusion NG 2)	1.11	0.253	0.295	–	–	–
UUUAAUUUUUUUUUUUUACAAGCUUUUUGCUCGUCUUAUACAUGAGGAUCACCCAUGUAGGUGGGAGGUAAAUUAUC [JMF 79] (puzzle: Sensor v3, turn-off variant 2)	–	–	–	0.0408	0.116	0.0438
UCGCUCCGUGUAGGAUAUCGUUGUACCCUGCGGCGAGAAGGACAUGAGGAUCACCCAUGUAUGUUAUUAUCACGCGUGGCGCAA [Design 69] (Eterna round: R96, puzzle: Exclusion NG 1)	0.0159	0.0134	0.0183	–	–	–
UUAGCGUAUGUAAGGAUAUGCUGGUCUAAUGAUCAGCAGAAGGUACAUGAGGAUCACCCAUGUGGAUUCGUUAU [Mod of JL 8 - Jieux - Brourd's mod of Exclusion 4] (Eterna round: R97, puzzle: Brourd's mod of Exclusion 4)	0.327	–	0.03	–	–	–
AGAUGCUCGAGUCGACAUGAGGAUCACCCAUGUACAGUUAGUGAGGAUAUCGGAGACACAUAGUAUGAGAAGGCGCGAACGUGA [Ex NG3 #15] (Eterna round: R96, puzzle: Exclusion NG 3)	0.224	0.0521	0.0978	–	–	–
UACAUGAGGAUCACCCAUGUUUUGUCGUGUAUGGUAUUUAUCUAGGAUAUCAUUUUAUUAAGUUAUGAGAAGGAGAAUAUUAAU [JMF's solution 90] (Eterna round: R96, puzzle: Exclusion NG 3)	0.0348	0.0249	0.0323	–	–	–
UUAUUAUAUGUAGGAUAUGCAUAUUAUUAUUAUGCAGAAGGACAUGAGGAUCACCCAUGUAUAUUGUUGUUGUAUAUUAUAUAU [Title] (Eterna round: R96, puzzle: Exclusion NG 1)	–	0.0209	–	–	–	–
UAACAGUAAGGAUAUCCAGAUCCAGACAUGAGGAUCACCCAUGUCAAAUACCUUUGACACGGAGAAGGUACGAAAA [EX5 A.26] (Eterna round: R97, puzzle: Exclusion 5)	0.0532	–	0.0519	–	–	–
AGCCUGCAAGUAAGGAUAUGAAGUUAAAAGAACGGUCAGAAGGUACUUGAGGAUCACCCAAGUACGGGAGCGUG [Teuscema] (Eterna round: R97, puzzle: Brourd's mod of Exclusion 4)	0.041	–	0.0163	–	–	–
AGCUAGUCAGGAUAUACGUAAAUGUCGAAAGACGUAUUGGGACAUGAGGAUCACCCAUGUAGAAGGGACUAGCA [Mod of Janderson's WEB Mod v.1] (Eterna round: R96, puzzle: Exclusion 2)	0.168	0.0197	0.0248	–	–	–
CCGAUGUCAGGAUAUAGCGGUCGCUGCCACGGUGGAGUCUGCUAGAAGGGACAUGAGGAUCACCCAUGUCGAAC [Eternabot (Original) Solution 49] (Eterna round: R97, puzzle: Exclusion 4)	0.0577	–	0.0234	–	–	–
UAUUAGCAAGUGAGAUCCCACAUGAGGAUCACCCAUGUGCUCGUCUUAUAAGGUACUGUGACGAUAGUCACGGUACC [Mat - Sensor, turn-off var - Eli Mod - D1] (Eterna round: R97, puzzle: Sensor, turn-off variant 1)	0.0499	–	0.049	–	–	–
UAGAGAGAUAAGGAUAUCUAUUAAAUUGUGCGUAGAGAAGGUAUCACAUGAGGAUCACCCAUGUGGUCUAAUAA [Eternabot (L1) Solution 88] (Eterna round: R97, puzzle: Exclusion 6)	0.0297	–	0.0241	–	–	–
UAUCUUCAUAUCACAUGAGGAUCACCCAUGUUAUUCAUCUCGUAGGAUAUCGAGGUUUUUUUUUUCGAGAAGGACGUAUUGUUU [JR_ExcNG3_Sub078] (Eterna round: R96, puzzle: Exclusion NG 3)	0.183	0.159	0.18	–	–	–
GUGUAGUAAGGAUAUACAUGAGGAUCACCCAUGUGAGUAAGAUAGAAUAAGAUAAAGUGUAGAAGGUAUAGUGU [Excluse me!!! 16 - Jieux - Exclusion 3] (puzzle: Exclusion 3)	–	–	–	0.0426	0.0428	0.0489
GUCCUGAGCGUUAGGAUAUUCACAGUGGACUACUGGAAGAAGGGACAUGAGGAUCACCCAUGUUCGAUACUGGG [Eternabot (L1) Solution 64] (Eterna round: R97, puzzle: Brourd's mod of Exclusion 4)	0.0722	–	0.0472	–	–	–

Sequence	apparent KD of MS2 coat protein (input ligand: FMN 200 uM) [µM]	apparent KD of MS2 coat protein [1] [µM]	apparent KD of MS2 coat protein (input ligand: none) [µM]	apparent KD of MS2 coat protein [2] [µM]	apparent KD of MS2 coat protein [3] [µM]	apparent KD of MS2 coat protein [4] [µM]
CUAGCGAAUGUAGGAUAUCGGACUGUUUCAGUCUGAGAAGGACAUGAGGAUCACCCAUGUAUAGCUACGUGAGUAGCACGCUAG [JL ENG1 3.90] (Eterna round: R96, puzzle: Exclusion NG 1)	0.0276	0.0161	0.0217	–	–	–
GUCUGGUUAGGAUAUACAGUGUCCACGAGUUAGUUGCCCUAACAUGAGGAUCACCCAUGUAGAAGGAGCGAGAA [Erisared] (Eterna round: R96, puzzle: Exclusion 2)	0.0227	0.0133	0.0166	–	–	–
AAUAACAAUGUGAGGAUAUCUAGAGCCUCGGCUCUAGAGAAGGCACAUGAGGAUCACCCAUGUCUCAAUAACAA [BmEx4/2-E7] (Eterna round: R97, puzzle: Brourd's mod of Exclusion 4)	0.502	–	0.0527	–	–	–
ACACUGCGAGGAUAUACAUGAGGAUCACCCAUGUAUCGGUAGUCAAGGUUAAUUUAAGGUAGAAGGCGCGUAUU [JR_Ex3_Sub007] (Eterna round: R97, puzzle: Exclusion 3)	0.0264	–	0.024	–	–	–
UAUUAGCAAGUAAGAUCCCACAUGAGGAUCACCCAUGUGCUCGUCAUAUCAGGUACGGAGCGGAAACUCACGGUACG [Sensor-V1 #87] (Eterna round: R97, puzzle: Sensor, turn-off variant 1)	0.209	–	0.351	–	–	–
UACAUGAGGAUCACCCAUGUUUUGUCGUGUAUGGUAUUUAUCUAGGAUAUCAAUCUAUUUAUUUAUGAGAAGGAGAAUAUUAAU [JMF's solution 13] (Eterna round: R96, puzzle: Exclusion NG 3)	0.0396	0.0257	0.0423	–	–	–
GCCUUGGGAGUCAGGAUAUACAAUAAAAUAAUUAAGUAGAAGGGACAUGAGGAUCACCCAUGUACAUUACAUCG [alecazam31] (Eterna round: R97, puzzle: Brourd's mod of Exclusion 4)	0.0395	–	0.0257	–	–	–
CGAUGCAAAGUAAGGAUAUGCUUCCGGAAACGGAGGCAGAAGGUACAUGAGGAUCACCCAUGUUAAAAGCAUCG [Explosion 3 - Jieux - Brourd's mod of Exclusion 4] (Eterna round: R97, puzzle: Brourd's mod of Exclusion 4)	0.0163	–	0.0142	–	–	–
GCACGGUUGCUAGGAUAUCCUUGCGAUUAGCAAGGAGAAGGAGCACAUGAGGAUCACCCAUGUACCUCAAUAAUCCUUCCGUGC [Eli exng1 - 028] (Eterna round: R96, puzzle: Exclusion NG 1)	0.0129	0.0132	0.0156	–	–	–
GGACAGCGAGGAUAUACGUGUACGUUAUCCUCUAUGGGUCAACAUGAGGAUCACCCAUGUAGAAGGCGCAUAAU [Mabima] (puzzle: Exclusion 2)	–	–	–	–	0.0187	–
UCUGGUGCAGGAUAUACAUGAGGAUCACCCAUGUGAUCAGCAGUCCUCGGACUGCAAUGUAGAAGGGCACCAGA [E3/1-D2] (Eterna round: R97, puzzle: Exclusion 3)	0.0471	–	1.23	–	–	–
UGUUUAUAUGAAGGAUAUACUUAACAUGAGGAUCACCCAUGUGGUGUUGUGAGUGAGUGAGUUUAGUAGAAGGUCAAUGAUUUU [JMF's solution 75] (Eterna round: R96, puzzle: Exclusion NG 2)	1.03	0.2	0.333	–	–	–
CAUCCUAUUGUAGGAUAUCCGCUUAUUAUAUUGGGAGAAGGACAUGAGGAUCACCCAUGUGUGUAAUCAGAUGUGCGUGUUAAC [an other try] (Eterna round: R96, puzzle: Exclusion NG 1)	0.173	0.0661	0.0822	–	–	–
UCAUGUCCUGAGGAUAUGCAGCGGAUAAACGCAGCAGAAGGCAGGACAUGAGGAUCACCCAUGUGUGCCUUCUA [Exclusion 6 Mod5 of JL of Mod of Letion by ViennaUCT] (Eterna round: R97, puzzle: Exclusion 6)	0.0183	–	0.19	–	–	–
GGCUGCAAUGUAGGAUAUCUGCACGUGUAGUGCAGAGAAGGACAUGAGGAUCACCCAUGUAUAGUAGCUUCGGCUACAGCAGCC [ENG1-D3] (Eterna round: R96, puzzle: Exclusion NG 1)	0.0246	0.0127	0.0182	–	–	–
UUUAAACUUACAAUCUUCGCUGGCAUGCUUGUGCCAGCUACAUGAGGAUCACCCAUGUUUUUUGCUCGUCUUAUUCU [Usre] (puzzle: Sensor v3, turn-off variant 2)	–	–	–	0.0235	–	0.0251
